Measurements reported in IntAct's records for PubMed 17161399.

B1: Protein VAC14 homolog (Homo sapiens), Q08AM6 (parent)
chain: MNPEKDFAPLTPNIVRALNDKLYEKRKVAALEIEKLVREFVAQNNTVQIKHVIQTLSQEFALSQHPHSRKGGLIGLAACSIALGKDSGLYLKELIEPVLTCFNDADSRLRYYACEALYNIVKVARGAVLPHFNVLFDGLSKLAADPDPNVKSGSELLDRLLKDIVTESNKFDLVSFIPLLRERIYSNNQYARQFIISWILVLESVPDINLLDYLPEILDGLFQILGDNGKEIRKMCEVVLGEFLKEIKKNPSSVKFAEMANILVIHCQTTDDLIQLTAMCWMREFIQLAGRVMLPYSSGILTAVLPCLAYDDRKKSIKEVANVCNQSLMKLVTPEDDELDELRPGQRQAEPTPDDALPKQEGTASGGPDGSCDSSFSSGISVFTAASTERAPVTLHLDGIVQVLNCHLSDTAIGMMTRIAVLKWLYHLYIKTPRKMFRHTDSLFPILLQTLSDESDEVILKDLEVLAEIASSPAGQTDDPGPLDGPDLQASHSELQVPTPGRAGLLNTSGTKGLECSPSTPTMNSYFYKFMINLLKRFSSERKLLEVRGPFIIRQLCLLLNAENIFHSMADILLREEDLKFASTMVHALNTILLTSTELFQLRNQLKDLKTLESQNLFCCLYRSWCHNPVTTVSLCFLTQNYRHAYDLIQKFGDLEVTVDFLAEVDKLVQLIECPIFTYLRLQLLDVKNNPYLIKALYGLLMLLPQSSAFQLLSHRLQCVPNPELLQTEDSLKAAPKSQKADSPSIDYAELLQHFEKVQNKHLEVRHQRSGRGDHLDRRVVL

Variants of: B1
Conditions: with nos1_human NOS1, P29475
nos1_human NOS1, P29475, sequence (P29475 whole entry): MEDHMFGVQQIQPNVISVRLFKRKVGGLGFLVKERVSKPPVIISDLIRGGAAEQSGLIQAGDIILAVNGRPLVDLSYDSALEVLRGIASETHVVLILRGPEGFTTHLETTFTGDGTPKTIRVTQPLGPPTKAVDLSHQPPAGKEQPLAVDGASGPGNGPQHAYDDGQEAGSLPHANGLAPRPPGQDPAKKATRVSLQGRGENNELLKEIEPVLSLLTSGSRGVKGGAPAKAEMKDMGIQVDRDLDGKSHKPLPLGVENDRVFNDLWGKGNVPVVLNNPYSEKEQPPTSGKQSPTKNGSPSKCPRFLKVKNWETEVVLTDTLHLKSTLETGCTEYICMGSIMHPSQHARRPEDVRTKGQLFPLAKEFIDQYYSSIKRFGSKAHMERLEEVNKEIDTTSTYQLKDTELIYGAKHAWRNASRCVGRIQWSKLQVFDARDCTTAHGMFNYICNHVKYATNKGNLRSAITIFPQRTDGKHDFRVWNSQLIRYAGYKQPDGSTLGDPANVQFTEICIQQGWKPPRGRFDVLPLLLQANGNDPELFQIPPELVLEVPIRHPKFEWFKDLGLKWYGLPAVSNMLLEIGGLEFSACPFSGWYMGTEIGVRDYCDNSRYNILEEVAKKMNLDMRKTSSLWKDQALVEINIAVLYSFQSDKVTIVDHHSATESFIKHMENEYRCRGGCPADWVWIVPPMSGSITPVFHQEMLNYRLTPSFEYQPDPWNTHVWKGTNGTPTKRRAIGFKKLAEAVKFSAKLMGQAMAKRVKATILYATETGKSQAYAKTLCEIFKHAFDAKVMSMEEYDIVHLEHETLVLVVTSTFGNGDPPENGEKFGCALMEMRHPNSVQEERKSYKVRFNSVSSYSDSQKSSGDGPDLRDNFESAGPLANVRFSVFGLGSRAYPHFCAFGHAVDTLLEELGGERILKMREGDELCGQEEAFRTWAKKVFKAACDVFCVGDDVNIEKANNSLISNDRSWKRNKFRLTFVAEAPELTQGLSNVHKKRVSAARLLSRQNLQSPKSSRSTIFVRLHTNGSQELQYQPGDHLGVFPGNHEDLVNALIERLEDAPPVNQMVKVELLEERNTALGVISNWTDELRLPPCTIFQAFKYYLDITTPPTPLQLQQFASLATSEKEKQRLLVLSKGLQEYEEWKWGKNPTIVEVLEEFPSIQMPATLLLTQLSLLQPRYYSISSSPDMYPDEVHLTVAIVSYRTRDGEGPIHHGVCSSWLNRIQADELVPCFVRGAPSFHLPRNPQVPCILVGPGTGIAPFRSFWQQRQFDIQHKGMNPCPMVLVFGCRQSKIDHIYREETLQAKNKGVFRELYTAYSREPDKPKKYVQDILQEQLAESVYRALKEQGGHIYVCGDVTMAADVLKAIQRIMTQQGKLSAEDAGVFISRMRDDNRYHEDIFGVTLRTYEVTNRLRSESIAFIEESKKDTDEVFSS

effect of a mutation on the interaction	Variant
disrupting interaction	D774A
disrupting interaction	L776A
decreasing interaction	G773A

Variants of: B1
Conditions: with nos1_human NOS1, P29475
Remark: another data set of the same source

effect of a mutation on the interaction	Variant
disrupting interaction	D777A
